Laboratory results from patent publication US7709240B2, “AMP deaminase originating streptomyces and utilization thereof” (Amano Enzyme Inc., priority 2004, dated 2010).

Experiments:
[1] = Relation between reaction temperature and activity of purified enzyme; assay type: biochemical; conditions: reaction temperature 75° C.; activity at 65° C. = 100%
Protocol: (§1) By using the decrease of OD265 at the time of reaction as an index, the enzyme activity was measured. To 1.5 ml of solution obtained by mixing 0.017M 5′ AMP-2Na and 1/15M phosphate buffer solution (pH 5.6) at the ratio of 1:2, 0.5 ml of sample solution was added so as to obtain a reaction solution, which was reacted at 37° C. for 15 minutes. Then, 2% perchloric acid solution was added so as to stop the reaction and 100 μl of the solution was taken out. Water was added to the solution so that the total amount was 5 ml. Then, OD265 was measured. The value similarly measured at reaction time of 0 minute was defined as a blank. Under the above-mentioned conditions, a case where an absorbance difference is reduced by 0.001 during 60 minutes was defined as one unit.
The relation between the reaction temperature and activity of the obtained purified enzyme was examined. […] As is apparent from the graph of FIG. 7 (a), high activity is observed in the wide range from 40° C. to 70° C. Furthermore, even in the case where the reaction temperature is 75° C., about 50% activity is found. Thus, it is shown that the enzyme acts favorably under the wide range of temperatures.

[2] = Relation between pH and activity of purified enzyme; assay type: biochemical
Protocol: as §1
Next, the relation between pH and activity of the obtained purified enzyme was examined. […] In the wide range of pH from about 4.5 to about 8.5, relatively high activity is observed. In the range of pH from about 5.0 to about 8.0, 70% or more of the reaction property is observed. Furthermore, it is shown that even in the case where pH is 9.0, about 40% of reactivity is obtained.

[3] = IMP conversion reaction (HPLC); assay type: biochemical; conditions: 1.1% AMP solution, pH 7.0, 50° C., 4 hours
Protocol: IMP conversion rate by HPLC of AMP deaminase produced by Aspergillus melleus and Streptomyces murinus was examined. Specifically, by using 1/15M phosphate buffer solution (pH 7.0), 1.1% AMP solution was prepared. To 5 ml of 1.1% AMP solution, 0.5 ml of enzyme solution was added and reacted at 50° C. for 4 hours. Thereafter, heat treatment at 100° C. was carried out for 10 minutes, filter filtration (0.45 μm) was carried out, and HPLC analysis was carried out.

[4] = Feasibility test 1: nuclease and deaminase treatment of yeast lysate carried out independently; conditions: after nuclease treatment; deaminase at 50° C., pH 6, 5 hours
Protocol: In test 1, similar to the current production method, treatment with nuclease and treatment with deaminase were carried out independently. Specifically, the treatment was carried out by the following procedure and the IMP conversion rate was calculated. Firstly, nuclease “AMANO” G (Amano Enzyme Inc., 0.1% w/w yeast solid) was added to yeast lysate (YL-15, 0.2%) and they were reacted with each other under the conditions at a temperature of 70° C. and pH 5 for 3 hours. Then, “Deamizyme (50,000 u/mg product) (trade name of Amano Enzyme Inc., 0.01 to 0.04% w/w yeast solid)” that is an AMP deaminase agent derived from the test enzyme (Aspergillus melleus), or a crude enzyme solution prepared from Streptomyces murinus was added and reacted with each other under the conditions at a temperature of 50° C. and pH 6 for 5 hours. Then, the reacted product was heat treated, and then subjected to HPLC analysis. Note here that added amount of AMP deaminase derived from Streptomyces murinus was set so that the activity value thereof became the same as that of “Deamizyme (50,000 u/mg product)” (trade name, Amano Enzyme Inc.)

Substrate specificity [5] = assay type: biochemical; conditions: activity with respect to 5′ AMP = 100%
Excerpt: (§2) It is reported that adenosine deaminase derived from Streptomyces aureofaciens has a wide range of substrate property, for example, catalytic ability of AMP (non-patent document 2). Taken this into consideration, in order to confirm whether deaminase derived from Streptomyces murinus obtained in the above-mentioned method is AMP-deaminase or adenosine-deaminase, the substrate specificity was investigated. Note here that the relative activity, when the enzyme activity with respect to 5′ AMP is defined as 100% is represented. […] In particular, the enzyme acted on 5′dAMP, ADP and ATP favorably. From the above-mentioned results, it was confirmed that the deaminase derived from Streptomyces murinus obtained by the above-mentioned method was AMP deaminase. Furthermore, it was determined that the enzyme was able to be employed preferably in a reaction using 5′dAMP, ADP and ATP as a substrate.
In order to determine whether the deaminase derived from transformant (SAD-1) obtained as mentioned above was AMP deaminase or Adenosine-deaminase, the substrate specificity was investigated. Note here that relative activities when the enzyme activity with respect to 5′ AMP was defined as 100% are represented. […] In particular, the enzyme acted on 5′-dAMP, ADP and ATP favorably. From the above-mentioned results, it was confirmed that deaminase derived from transformant (SAD-1) was similar to AMP deaminase derived from Streptomyces murinus and it was AMP deaminase. Furthermore, it was determined that the enzyme can be preferably used with respect to the reaction using 5′-dAMP, ADP and ATP as a substrate.

Substrate specificity [6] = assay type: biochemical
Excerpt: as §2, with “From the above-mentioned results, it was confirmed that the deaminase derived from Streptomyces murinus obtained by the above-mentioned method was AMP deaminase.” left out
Then, in the genus Streptomyces in the stored strains of Amano Enzyme Inc., screening of AMP deaminase producing strain was carried out. […] Furthermore, the residual activity was measured when the activity obtained when treatment was not carried out was defined as 100%. […]
In order to determine whether the deaminase derived from transformant (SAD-1) obtained as mentioned above was AMP deaminase or Adenosine-deaminase, the substrate specificity was investigated. […] Furthermore, it was determined that the enzyme can be preferably used with respect to the reaction using 5′-dAMP, ADP and ATP as a substrate.

Substrate specificity [7] = assay type: biochemical; remark: listed apart in the source

B1: AMP deaminase derived from Streptomyces murinus: thermostable AMP deaminase enzyme produced by Streptomyces murinus IFO14802; amino acid sequence SEQ ID NO: 1 (protein, listed as Streptomyces murinus)
chain: APPPRQATAAEARTDAYLRSVKDRPAALRAFFRQLPKGGDLHNHLSGAVNTDYLIELAAEDGLCIDATMTAVPSPCGPGTRPAADARTDRAFHDAIVRAWSMQDFPPDENGHDHFFDTFGKFGEVTWRHRGKLLAQVADTVVANNQSYLETMVTPASDGAKQLADQVGWDADLTALHRKLAAGGKLDKLVADARKEADDGDAEFRATEHCGTAKARPACGLTVRWISQASRGSSPVRVFTQLDLGMRLAEADSRFVAVNLVQPEDWDSSLENYSLQMRMVGYLRTVYPKAHVTLHAGELWPGLVKPEALKFHIAEAVDIAHTQRVGHGVDLVHEDNWQRTARTMAARQIAVEVPFSSNAQILGVKGAEHPFTTYRRYGVPVVLATDDPGVSRIDISHEYQYAAATYGLGYPELKDLARASLQYAFLPGASLWQGNPTAQGYHPVAACRAERPGQPVHSAACRRLLDGSARARLEWRQEAAFAAFERAHARG
- relative activity [1]: about 50%
- optimum pH ([2]; McIlvaine buffer solution): around 5.6
- relative activity (reactivity) ([2]; pH 9.0, activity at pH 5.6 = 100%): about 40%
- relative activity (reaction property) ([2]; pH from about 5.0 to about 8.0, activity at pH 5.6 = 100%): ≥ 70%
- IMP conversion rate compared with AMP deaminase produced by Aspergillus melleus [3]: the same level
- ratio of the side product (hypoxanthine) compared with Aspergillus melleus [3]: smaller
- IMP conversion rate compared with AMP deaminase derived from Aspergillus melleus [4]: equivalent
- action on substrate 2′AMP (Substrate specificity [5]): did not act on
- action on substrate 3′5′-cyclic AMP (cAMP) (Substrate specificity [5]): also acted on
- action on substrate 3′AMP (Substrate specificity [5]): also acted on
- action on substrate 5′ AMP (Substrate specificity [5]): most favorably
- action on substrate 5′dAMP (Substrate specificity [5]): favorably
- action on substrate ADP (Substrate specificity [5]): favorably
- action on substrate ATP (Substrate specificity [5]): favorably
- action on substrate adenine (Substrate specificity [5]): did not act on
- action on adenosine as fraction of the action on 5′-AMP (Substrate specificity [6]): 1/10
- action on substrate Adenosine (Substrate specificity [6]; activity with respect to 5′ AMP = 100%): also acted on and weak
- action on substrate 5′-CMP (Substrate specificity [7]): did not act on
